Data reported in US20200002403A1 (UNIVERSITY COURT OF THE UNIVERSITY OF ABERDEEN, published 2020).
Substitutions are numbered along the chain they refer to.

B1: SEQ ID NO 44 (VNAR)
VNAR: TRVDQTPRTATKETGESLTINCVLTDTSYGWFSTSWFRKNPGTTDWERMSIGGRYVESVNKGAKSFSLRIKDLTVADSATYICRAQAAIPDFPRYVYGAGTVLTVN
notes: VNAR
B2: SEQ ID NO 42 (VNAR)
VNAR: TRVDQTPRTATKETGESLTINCVLTDTEYGLFSTSWFRKNPGTTDWERMSIGGRYVESVNKGAKSFSLRIKDLTVADSATYYCKALGWWPPAFPHWYDGAGTVLTVN
notes: VNAR
B3: SEQ ID NO 45 (VNAR)
VNAR: B2 VNAR with E28G, W89I, A92E
notes: VNAR
B4: SEQ ID NO 43 (VNAR)
VNAR: TRVDQTPRTATKETGESLTINCVLTDTRYALYSTSWFRKNPGTTDWERMSIGGRYVESVNKGAKSFSLRIKDLTVADSATYICRANEMMPPMDVYGAGTVLTVN
notes: VNAR
B5: SEQ ID NO 41 (VNAR)
VNAR: ASVNQTPRTATKETGESLTINCVLTDTGYGWFATSWFRKNPGTTDWERMSIGGRYVESVNKGAKSFSLRIKDLTVADSATYICRADMWPKNTKYSPDVYGAGTVLTVN
notes: VNAR

biological target: T1, mouse ICOSL (mouse, UniProt Q9JHJ8 47-279, limits assumed); experiment: lead clones against targets used to screen ELSS1; alignment legend
T1 construct: Target of ELSS1 panning; also called mICOSL
T1 sequence (looked up): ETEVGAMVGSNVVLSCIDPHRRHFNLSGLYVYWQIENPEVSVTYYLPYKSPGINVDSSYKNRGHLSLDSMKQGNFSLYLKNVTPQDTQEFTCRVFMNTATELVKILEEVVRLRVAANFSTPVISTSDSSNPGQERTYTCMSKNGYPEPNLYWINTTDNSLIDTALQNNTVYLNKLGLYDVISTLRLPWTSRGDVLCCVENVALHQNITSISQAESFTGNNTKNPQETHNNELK

Binder | binding result
B1 | binds
B2 | binds
B3 | binds
B4 | binds
B5 | binds
